Blank lines part the entries; values can stand above or below the binder they belong to.
Experiments:
[1] = biological target: T1, TGFβ1 (UniProt P01137 279-390); assay: SPR (Biacore)
T1 construct: also called TGFb1

[2] = biological target: T2, TGFβ3 (UniProt P10600 301-412); assay: SPR (Biacore)
T2 construct: also called TGFb3
T2 sequence (looked up): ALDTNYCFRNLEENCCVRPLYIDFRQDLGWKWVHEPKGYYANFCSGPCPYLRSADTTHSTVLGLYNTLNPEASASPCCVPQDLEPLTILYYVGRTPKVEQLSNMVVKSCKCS

[3] = biological target: T3, Keap1 (Kelch 1-6 domains, AA 314-611) (Homo sapiens (Human), UniProt Q14145 321-611); assay: Biacore competition assay (FIG. 33)
T3 construct: Kelch domain expressed in E. coli with an N-terminal His tag and TEV site; the same preparation is described for SPR; also called Kelch-like ECH-associated protein 1; Kelch domain of Keap1
Experimental: (§1) Surface plasmon resonance (SPR) experiments were carried out on a Biacore 3000 system (GE Healthcare) using reagents from the same manufacturer. […] The latter was immobilised to the activated carboxymethyl dextran surface via amine coupling as follows: a fresh mixture of 50 mM N-hydroxysuccimide and 200 mM 1-ethyl-3-(3-dimethylaminopropyl)-carbodiimide was injected for 5 minutes at a flow rate of 10 μl/min, followed by 50 μg/ml anti-human F(ab′)₂ in 10 mM acetate pH 5.0 buffer for 5 min at the same flow rate. Finally the surface was deactivated with a 10 minute pulse of 1 M ethanolamine.HCl pH 8.5. […] Initial binding of Keap1 to expressed Fabs was assessed by injecting 50 μl supernatant, diluted 1 in 5 in running buffer, over the reference and anti-F(ab′)₂ flow cells at a flow rate of 10 μl/min, followed by a 150 μl injection of 0, 500 or 5000 nM Keap1 in running buffer at a flow rate of 30 μl/min. […] Association and dissociation kinetics of Keap1 binding to captured Fabs were determined by the same protocol over at least 8 values of the following concentrations: 75, 100, 150, 250, 350, 500, 750, 1000, 1500, 2500, 3500 and 5000 nM. Zero Keap1 controls were interspersed between the former cycles in order to correct for baseline drift and sham transfected supernatant was assessed at each Keap1 concentration in order to determine and correct for non-specific binding of Keap1.

[4] = biological target: T3, Keap1 (Kelch 1-6 domains, AA 314-611); assay: Biacore competition assay, % inhibition against [Ab] M, fitted with log concentration vs normalized response/variable slope; neither the sheet nor the text names the surface-bound partner
Experimental: as §1

[5] = biological target: T3, Keap1 (Kelch 1-6 domains, AA 314-611); assay: SPR, captured Fab, Keap1 analyte
Experimental: Surface plasmon resonance (SPR) experiments were carried out on a Biacore 3000 system (GE Healthcare) and detailed experimental details are given below. Briefly, supernatant containing expressed Fab (or sham transfected supernatant control) was injected over immobilized anti-human F(ab′)₂ polyclonal on a CM5 chip. A second injection of a Keap1 titration or a zero analyte control allowed association and dissociation kinetics to be monitored. Chip regeneration completed each sensorgram cycle. Sensorgrams were corrected for baseline drift, caused by slow dissociation of captured Fab, by subtraction of an adjacent zero analyte control cycle. […] Specificity of Fab binding to Keap1 was assessed by the same protocol by titration of an Nrf2 peptide analogue against a constant concentration of Keap1.
Surface plasmon resonance (SPR) experiments were carried out on a Biacore 3000 system (GE Healthcare) using reagents from the same manufacturer. […] Initial binding of Keap1 to expressed Fabs was assessed by injecting 50 μl supernatant, diluted 1 in 5 in running buffer, over the reference and anti-F(ab′)₂ flow cells at a flow rate of 10 μl/min, followed by a 150 μl injection of 0, 500 or 5000 nM Keap1 in running buffer at a flow rate of 30 μl/min.

[6] = biological target: T1, TGFβ1; assay: cell-based or functional assay
[7] = biological target: T4, TGFβ2 (UniProt P61812 303-414); assay: cell-based or functional assay
T4 sequence (looked up): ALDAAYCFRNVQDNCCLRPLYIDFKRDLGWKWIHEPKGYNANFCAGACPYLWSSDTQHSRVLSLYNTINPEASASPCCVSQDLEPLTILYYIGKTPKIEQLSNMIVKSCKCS

[8] = biological target: T2, TGFβ3; assay: cell-based or functional assay
[9] = biological target: T1, TGFβ1; assay: SPR (Biacore), Fab immobilized on the chip
[10] = biological target: T2, TGFβ3; assay: SPR (Biacore), Fab immobilized on the chip

T1 sequence (P01137 279-390 limits assumed): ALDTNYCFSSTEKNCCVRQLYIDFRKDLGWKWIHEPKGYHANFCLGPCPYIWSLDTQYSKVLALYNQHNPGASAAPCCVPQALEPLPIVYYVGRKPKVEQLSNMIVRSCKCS
T3 sequence (Q14145 other isoform, or with tags, fused parts or gaps limits assumed): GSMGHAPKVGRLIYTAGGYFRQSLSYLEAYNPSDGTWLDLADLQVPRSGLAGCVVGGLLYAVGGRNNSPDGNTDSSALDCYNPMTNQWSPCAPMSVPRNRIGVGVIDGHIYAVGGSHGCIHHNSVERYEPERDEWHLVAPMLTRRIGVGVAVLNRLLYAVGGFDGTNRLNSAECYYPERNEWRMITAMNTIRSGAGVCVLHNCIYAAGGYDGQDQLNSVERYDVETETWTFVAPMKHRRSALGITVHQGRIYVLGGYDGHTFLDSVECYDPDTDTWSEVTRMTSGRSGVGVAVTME

binding result [1]: no binding
binding result [2]: no binding
B1: Fab design 186 (Fab, V domains shown)
VH: EVQLVQSGAEVKKPGESLKISCKGSGYSFTAYWISWVRQMPGKGLEWMGRIIPSVSITNYSPSFQGHVTISADKAISTAYLQWSSLKASDTAMYYCARLLMQGAMLTFDSWGQGTLVT
VL: DIQMTQSPSSLSASVGDRVTITCRASQSIGLALAWYQQKPGKAPKLLIYAASSLQSGVPSRFSGSGSGTDFTLTISSLQPEDFATYYCQQGNTLSYTFGQGTKVEIKR
notes: Fab; Scaffold 3NAC

fold lower potency than its Fab form (LS146 Fab) [3]: 3 fold
IC50 [4]: 79 nM
B2: LS146-scFv (scFv)
scFv: EVQLVESGGGLVQPGGSLRLSCAASGFAISASSIHWVRQAPGKCLEWVASIDPETGETLYAKSVAGRFTISADTSKNTAYLQMNSLRAEDTAVYYCARAYAGDGVYYADVWGQGTLVTVSSGGGGSGGGGSGGGGSGGGGSDIQMTQSPSSLSASVGDRVTITCRASQSVSSAVAWYQQKPGKAPKLLIYSASSLYSGVPSRFSGSRSGTDFTLTISSLQPEDFATYYCQQSYSFPSTFGCGTKVEIKRTENLYFQ
notes: VH-(Gly4Ser)4-VL followed by a TEV site and His10 tag; also called LS146 formatted as a single chain Fv; scFv-LS146

Fraction of Fab binding sites occupied @ 500 nM Keap1 [5]: 0.023 fraction
B3: G56 Fab (Fab, V domains shown)
VH: EVQLVESGGGLIRPGGSLRLSCKGSGFIFENFGFGWVRQGPGKGLEWVSGTNWNGGDSRYGDSVKGRFTISRDNSNNFVYLQMNSLRPEDTAIYYCARGTDYTIDETGERAQGSGTFWYFDVWGRGTLVTVSS
VL: EIVLTQSPATLSVSPGERATLSCRASQNVHPRYFAWYQQKRGQSPRLLIHSGSTRAAGIADRFSGGGSGMHFTLTITRVEPEDFAVYFCQQYGGSPYTFGQGTRVELR
notes: Scaffold 3U4B

Fraction of Fab binding sites occupied @ 500 nM Keap1 [5]: 0.027 fraction
B4: G56.1 Fab (Fab, V domains shown)
VH: EVQLVESGGGLIRPGGSLRLSCKGSGFIFENFGFGWVRQGPGKGLEWVSGTNWNGGDSQYGDSVKGRFTISRDNSNNFVYLQMNSLRPEDTAIYYCARGTDYTIDETGERAQGSGTFWYFDVWGRGTLVTVSS
VL: EIVLTQSPATLSVSPGERATLSCRASRNVHPRYFAWYQQKRGQSPRLLIHSGSTRAAGIADRFSGGGSGMHFTLTITRVEPEDFAVYFCQQYGGSPYTFGQGTRVELR
notes: Scaffold 3U4B

TGFβ1 IC50 in the reporter gene assay (n = 2) [6]: 52.8 nM
TGFβ2 IC50 in the reporter gene assay (n = 2) [7]: 36.8 nM
TGFβ3 IC50 in the reporter gene assay (n = 2) [8]: 10.6 nM
Kd [9]: 106 nM
Kd [10]: 32.9 nM
B5: Fab184 (Fab, V domains shown)
VH: QVQLQQSGPELVRPGVSVKISCKGSGYTFIAEMLHWVKQSHAESLEWIGLIIPAVGITYYNQKFKDKATMTVDIASSTAYLELARLTSEDSAIYYCARSWAEGLFFDYWGQGTLVT
VL: DIVMTQTPKFLLVSAGDKVTITCKASQSVSNALTWYQQKPGQSPKLLIYYASNRYTGVPDRFTGSGYGTDFTFTISTVQAEDLAVYFCQQDYGAPPTFGGGTKVEIKR
notes: Fab; Scaffold 3MXW; also called designed Fab
